Legend:
o.a. B10v5 = test: -; apparent KD
bp.CS06xB10v5 = test: -; apparent KD

- Kd (o.a. B10v5): 0.417 nM
- Kd (bp.CS06xB10v5): 0.0196 nM
B1: hu c-Met (receptor)
chain: ECKEALAKSEMNVNMKYQLPNFTAETPIQNVILHEHHIFLGATNYIYVLNEEDLQKVAEYKTGPVLEHPDCFPCQDCSSKANLSGGVWKDNINMALVVDTYYDDQLISCGSVNRGTCQRHVFPHNHTADIQSEVHCIFSPQIEEPSQCPDCVVSALGAKVLSSVKDRFINFFVGNTINSSYFPDHPLHSISVRRLKETKDGFMFLTDQSYIDVLPEFRDSYPIKYVHAFESNNFIYFLTVQRETLDAQTFHTRIIRFCSINSGLHSYMEMPLECILTEKRKKRSTKKEVFNILQAAYVSKPGAQLARQIGASLNDDILFGVFAQSKPDSAEPMDRSAMCAFPIKYVNDFFNKIVNKNNVRCLQHFYGPNHEHCFNRTLLRNSSGCEARRDEYRTEFTTALQRVDLFMGQFSEVLLTSISTFIKGDLTIANLGTSEGRFMQVVVSRSGPSTPHVNFLLDSHPVSPEVIVEHTLNQNGYTLVITGKKITKIPLNGLGCRHFQSCSQCLSAPPFVQCGWCHDKCVRSEECLSGTWTQQICLPAIYKVFPNSAPLEGGTRLTICGWDFGFRRNNKFDLKKTRVLLGNESCTLTLSESTMNTLKCTVGPAMNKHFNMSIIISNGHGTTQYSTFSYVDPVITSISPKYGPMAGGTLLTLTGNYLNSGNSRHISIGGKTCTLKSVSNSILECYTPAQTISTEFAVKLKIDLANRETSIFSYREDPIVYEIHPTKSFISGGSTITGVGKNLNSVSVPRMVINVHEAGRNFTVACQHRSNSEIICCTTPSLQQLNLQLPLKTKAFFMLDGILSKYFDLIYVHNPVFKPFEKPVMISMGNENVLEIKGNDIDPEAVKGEVLKVGNKSCENIHLHSEAVLCTVPNDLLKLNSELNIEWKQAISSTVLGKVIVQPDQNFT
